Laboratory results reported in patent US20200207847A1 (SINGAPORE HEALTH SERVICES PTE, published 2020).

T1: human IL-11Rα, FLAG-tagged, expressed at the surface of transiently transfected cells (human, UniProt Q14626 23-422)
T1 construct: whole, on cells; also called IL-11Rα expressing HEK cells; FLAG-tagged human IL-11Rα; not shown: tag
T1 sequence (looked up): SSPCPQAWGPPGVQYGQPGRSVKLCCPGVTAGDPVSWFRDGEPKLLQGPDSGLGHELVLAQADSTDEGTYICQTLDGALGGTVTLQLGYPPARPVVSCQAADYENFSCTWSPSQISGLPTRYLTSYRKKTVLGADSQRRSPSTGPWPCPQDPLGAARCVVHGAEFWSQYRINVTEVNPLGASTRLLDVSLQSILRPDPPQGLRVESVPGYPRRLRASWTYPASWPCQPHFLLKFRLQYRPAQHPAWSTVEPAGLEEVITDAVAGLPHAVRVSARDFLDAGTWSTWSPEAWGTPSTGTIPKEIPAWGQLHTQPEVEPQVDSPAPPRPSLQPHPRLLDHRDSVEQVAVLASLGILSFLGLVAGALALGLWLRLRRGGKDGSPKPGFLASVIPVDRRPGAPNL


Assays:
[1] = target: T1, human IL-11Rα, FLAG-tagged, expressed …; assay: same assay; percent relative to the positive control anti-FLAG antibody (100%)
Protocol: (§1) Briefly, labelled control cells (not expressing IL-11Rα at the cell surface) and unlabelled target cells expressing human IL-11Rα at their surface (following transient transfection with a plasmid encoding a FLAG-tagged human IL-11Rα) were mixed together with the cell culture supernatant (containing mouse-anti-IL-11Rα antibodies) and secondary detection antibodies (fluorescently-labelled anti-mouse IgG antibody).
(§2) The cells were then analysed using the HTFC Screening System (iQue) for the two labels (i.e. the cell label and the label on the secondary antibody). Detection of the secondary antibody on the unlabelled, IL-11Rα expressing cells indicated ability of the mouse-anti-IL-11Rα antibodies to bind to IL-11Rα. Detection of the secondary antibody on the labelled, control cells indicated cross-reactivity of the mouse-anti-IL-11Rα antibodies for target other than IL-11Rα.
As a positive control condition, labelled and unlabelled cells were incubated with a mouse anti-FLAG tag antibody as the primary antibody.

[2] = target: T1, human IL-11Rα, FLAG-tagged, expressed …; assay: flow cytometry of subcloned hybridoma supernatant on cells transfected with FLAG-tagged human IL-11Rα (sheet header: 'pB1-IL11-hum.FL', 'flow cytometry (Attunes)'; text: iQue mix-and-measure, anti-mouse IgG secondary)
Protocol: The mouse hybridomas producing anti-human IL-11Rα antibodies were sub-cloned, and cell culture supernatant from the subcloned hybridomas was analysed by “mix-and-measure” iQue assay for (i) ability to bind to human IL-11Rα, and (ii) cross reactivity for antigen other than IL-11Rα.
as §1, §2

| Binder | % positive [1] [%] | GMFI [2] |
| --- | --- | --- |
| BSO-9A7 (antibody, V domains shown, Mouse monoclonal from hybridoma; also called RA7) VH: QVQLQQPGAELVRPGSSVKLSCKASGYTFTNYWMHWLKQRPVQGLEWIGNIGPSDSKTHYNQKFKDKATLTVDKSSSTAYMQLNSLTSEDSAVYYCARGDYVLFTYWGQGTLVTVSA VL: DIVLTQSPATLSMTPGDSVSLSCRASQSISNNLHWYQQKSHESPRLLIKYASQSISGIPSRFSGSGSGTDFTLSFNSVETEDFGVYFCQQRYSWPLTFGAGTKLEMK | 111 | 34800 |
| BSO-4G3 (antibody, V domains shown, Mouse monoclonal from hybridoma) VH: EVQLVESGGGLVKPGGSLKLSCAASGFTFSTYAMSWVRQTPEKRLEWVAAIKSNGGSTYYPDTVKDRFTISRDNAKNTLYLQMSSLRPEDTALYYCAHGLLFAHWGQGTLVTVSA VL: DIVLTQSPASLAVSLGQSVTISCRASESVEYSGTTLMQWYQQKPGQPPKLLIYGASNVESGVPARFSGSGSGTDFSLNIHPVEEDDIAMYFCQQSRKVPYTFGSGTKLEIK | 30 | 9300 |
| BSO-10D11 (antibody, V domains shown, Mouse monoclonal from hybridoma) VH: QVQLQQSGTELVRPGTSVKMSCKAAGYTFTDYWIGWIKQRPGHGLEWIGDIFPGGDYTKCSERFKGKAKLTADTSSSTAYMQLSRLTSEDSAIYYCARRSTTIRFGAMDNWGQGTSVTVSS VL: DIQMTQSPSSLSASLGERVSLTCRASQEISAYLSWLQQKPDGTIKRLIYSTSTLDSGVPKRFSGSRSGSDYSLTISSLESEDFADYFCLQYASSPLTFGAGTKLELK | 42 | 13100 |
| BSO-5E5 (antibody, V domains shown, Mouse monoclonal from hybridoma; also called RA5) VH: DVQLQESGPGLVKPSQSLSLTCSVTGYSITSDYYWNWIRQFPGNKLEWMGYISYDSSNNYNPSLKNRISITRDTSKNQFFLKLNSVTTEDTATYYCASVGYYYVSDWYFDVWGTGTTVTVSS VL: DIVMSQSPSSLPVSVGENVTMSCKSSQSLLYGSNQKNYLAWYQQKPGQSPKLLIYWASTRESGVPDRFTGSGSGTDFTLTISSVKAEDLAVYFCQQYYSYPRTFGGGTKLEIK | 28 | 8780 |
| BSO-2E5 (antibody, V domains shown, Mouse monoclonal from hybridoma; also called RA3) VH: QGQVQQSGAELVKPGASVKLSCKTSGFTFSTSYISWLKQKPRQSLEWIAWIYAGTGSTSYNQKFTGKAQLTVDTSSSTAYMQLSSLTSEDSAIYYCARHWAYWGQGTLVTVSA VL: DIQMTQSPSSLSASLGERVSLTCRASQDIGSSLNWLQQEPDGTIKRLIYATASLESGVPKRFSGSRSGSDYSLTISRLESEDFVDYYCQQYASSPPTFGAGTKLELK | 30 | 9540 |
| BSO-7G9 (antibody, V domains shown, Mouse monoclonal from hybridoma) VH: QVQLQQPGAELVKPGASVRLSCKASGYTFTSYWMHWVKQRPGQGLEWIGMIHPNSGYTNYNEKFKIKATLTVDKSSSTAHMQLSSLTSEDSAVYHCARGGYDGSYGPWFAYWGQGTLVTVSA VL: DVVMTQTPLSLPVSLGDQASISCRSSQSLVHSNGNTYLHWYLQKPGQSPKLLIYKVSNRFSGVPDRFSGSGSGTDFTLKISRVEAEDLGVYFCSQSTHVPLTFGAGTKLELK | 59 | 18600 |
| BSO-13B10 (antibody, V domains shown, Mouse monoclonal from hybridoma; also called RA9) VH: QVQLKESGPGLVAPSQSLSITCTVSGFSLTSFSISWVRQPPGKGLEWLGGIWTGGGTNYNSALKPRLSISKDNSKSQVFLKMNSLQTDDTARYYCARNSNYPSGFAYWGQGTLVTVSA VL: DIVMTQSQKFMSTSVGDRVSVTCKASQNVGSNVAWYQQKAGQSPKALIYSASYRYSGVPDRFTGSGSGTDFTLTISNVQSEDLAEYFCQQYNSYPLTFGAGTKLELK | 35 | 10900 |
